# Reference: patent publication US20070026510A1, “Process for biochemical production of glyoxylic acid” (Kaneka Corporation, priority 2003, published 2007)
# Key:
# [1] = Oxidase activity to glyoxal (H2O2 detection with 4-AA/TOOS/POD, absorbance 555 nm); assay type: biochemical; conditions: for Activity to glyoxal/activity to glyoxylic acid: 10 mM substrate, 30° C., 100 mM phosphate buffer pH 7; for Relative activity (%): substrate glyoxal (reference = 100), enzymes of the invention
# Protocol: When the reaction is catalyzed by oxidase, not only glyoxylic acid but also hydrogen peroxide is produced. Oxidase activity of interest can easily be detected by detecting such hydrogen peroxide.
# Specifically, 0.1 ml of cell suspension or enzyme solution is added to 0.9 ml of a 100 mM phosphate buffer (pH 7) having the composition indicated below, and an increase in the absorbance at a wavelength of 555 nm is measured at 30° C. In the present invention, enzyme activity for generating 1 μmol H2O2 per minute is defined as 1 unit.
# (§1) The cell-free extract of each of KNK235 and KNK058 obtained by the method described in Example 1 was charged to a Resource Q column (6 ml) that had previously been equilibrated with a 0.05 M phosphate buffer (pH 7), and the enzyme was eluted with a linear concentration gradient of sodium chloride from 0 to 0.5 M, so as to collect active fractions. Roughly purified enzyme solutions of these KNK235 and KNK058 and purified enzymes obtained from Streptomyces sp. KNK269, Microbacterium sp. KNK011, and Cellulosimicrobium cellulans IFO 15516, obtained in Examples 4, 5, and 7, respectively, were measured in terms of their oxidase activity to glyoxal and to glyoxylic acid. Measurement of the enzyme activity was carried out by the following method. That is, 1.0 ml of a reaction solution comprising 10 mM glyoxal or glyoxylic acid, 0.67 mM 4-AA, 1.09 mM TOOS, 2 U/ml POD, and a roughly purified enzyme from KNK235 or KNK058, or a purified enzyme obtained from NKN269, KNK011, or IFO 15516 in Example 4, 5, or 7, was reacted at 30° C. in a 100 mM phosphate buffer (pH 7). Thereafter, an increase in the absorbance at a wavelength of 555 nm was measured.
# [2] = Conversion of glyoxal into glyoxylic acid by purified enzymes, HPLC; assay type: biochemical; conditions: 0.2 U/ml enzyme, 50 mM glyoxal, 5,000 U/ml catalase, 100 mM Tris-HCl, 30° C., 3 hours
# Protocol: Each of the enzymes derived from Streptomyces sp. KNK269, Microbacterium sp. KNK011, Pseudomonas sp. KNK058, and Cellulosimicrobium cellulans IFO 15516, which were obtained in Examples 4, 5, 6, and 7, respectively, was reacted using glyoxal as a substrate. That is, 1 ml of 100 mM Tris-HCl buffer comprising 0.2 U/ml enzyme derived from each of the above strains, 50 mM glyoxal, and 5,000 U/ml catalase, were placed in a test tube. It was then subjected to a shake reaction at 30° C. for 3 hours. After completion of the reaction, the reaction solution was analyzed by high performance liquid chromatography.
# [3] = Oxidase activity to glyoxylic acid (H2O2 detection with 4-AA/TOOS/POD, absorbance 555 nm); assay type: biochemical; conditions: substrate glyoxylic acid, relative to glyoxal = 100; enzymes of the invention
# Protocol: as §1
# [4] = Heat stability of purified enzyme (remaining activity); assay type: physicochemical; conditions: 0.05 M phosphate buffer pH 7.2, 20 minutes, treatment at 70° C. (FIG. 3)
# Protocol: as §1, with “measured. […]” for “measured.”
# The present enzyme was treated in a 0.05 M phosphate buffer (pH 7.2) at each temperature from 30° C. to 70° C. for 20 minutes. Thereafter, the remaining activity of the present enzyme was measured using glyoxal as a substrate.
Activity to glyoxal/activity to glyoxylic acid [1],glyoxylic acid generated [2],Molecule,Relative activity (%) [1],Relative activity (%) [3],remaining activity after heat treatment [4]
183,25 mM,KNK011-derived enzyme: aldehyde oxidase purified from Microbacterium sp. KNK011; SEQ ID NOS: 7 and 8,100%,0.5%,–
100,26 mM,IFO15516-derived enzyme: aldehyde oxidase purified from culture supernatant of Cellulosimicrobium cellulans IFO 15516; SEQ ID NOS: 11 and 12,100%,1%,–
"1,710",7.6 mM,"KNK269-derived enzyme: aldehyde oxidase purified from Streptomyces sp. KNK269; three subunits, SEQ ID NOS: 1 to 3 (protein, Streptomyces sp. KNK269; amino acid sequence of subunit gamma of aldehyde oxidase; amino acid sequence of subunit beta of aldehyde oxidase; amino acid sequence of subunit alpha of aldehyde oxidase) chain 1: GADLEPEPVVDEHSTVTLNVNGDPTTLTVDHRTTVLETLRESFGLTGAKKGCDHGQCGACTVLVDGRRVNSCLLLAVAQDGATITTVEGLADGEDLHPVQRAFVERDALQCGFCTPGQICSAVGMLREAADGHPSHVTGPDTAAGPDAATGPGGPVALDADEIRERMSGNIFRCGAYHRIVEAIEDVIE chain 2: MKPFGYVRPASPDEAVRLCAEGSGARFLGGGTNLVDLMKLGVEAPRVLIDVAGLPLDRVTRTADGGLAIGATVRNSDLAAHPDVTDRYPVLSQALLAGASGQLRNSATTGGNLLQRTRCRYFQDVSKPCNKRLPGSGCPARDGTHRDLAILGHSPECVATNPSDMAVALAALDATVVLLGPEGERAVPLTEFHRLPGENPDQDTAIRTGELITEVVLPPPAPGAATRYRKARDRASFAFALVSVAATLRVDAGRVEHATLAFGGVAHRPWRARRAEAELRGAPATPAVFQHALIAELAEARPLRDNVFKVDLARRLALDVLGELTERQPTRTG chain 3: MTTRAPQFPGAPVVRREARDKVTGTARYAADRTPAGCLYAWTVPAAVAAGRVTAVRAVDALAVPGVHTVLTHDNAPELREPDDPILAVLQDDRVPHHGWPIALVIAESPEAARTGAGELHVEYARDEHDVTLTEDHPGLYTPEEANGGEPAVRVRGDVERALAASPVQVDATYRMVALHNHPMEPHAATAVRADGHLTVHDSSQGSTKVRESLAQAFGLAADRITVVSEHVGGGFGSKGTTRPQGVLAAMAAQHTGRPVKLVFPRAQLAEVVGHRAPTIQRVRLGADLDGVLTAVSHEVVTQTSTVKEFVEQAAVPARVMYASPHSRTAHRVTALDVPSPSWMRAPGEASGMYALESAMDVLDSALGLDPVELRLRNEPETEPDSGRPFSSRGLAACLRDGAARFGWQDRDPRPAARQEGRWLIGTGVASATYPVLLSRSTASAHATRDGDLSIAVNATDIGTGARTVLAQIAADVLGVAPEALRVDIGSTDLPAAPLAGGSSGTASWGWSVHKAATALAARLAEHRGPLPADGITTTADTGQETGEESPYARHAFGAHFAETAVDAVTGEVRVRRLLGVYAAGRILNERTARSQFTGGMVMGIGMALTEGCGIDPGFGDFTAKDLASYHVPVCADTADIQAHWIEEDDRHLNPMGSKGIGEIGIVGTAAAIGNAVRHATGARLRELPLTTDT",100%,0.1%,≥ 90%
